# In PMC9092470, “Understanding p300-transcription factor interactions using sequence variation and hybridization†” (RSC Chemical Biology, 2022):
# “And” between values parts separate entries of the source, which are not always exact repeats. Identical values can stand only once.
# B1: HIF-1α 786–826, expressed peptide (GFP tag cleaved) (peptide)
# peptide: GPGSSMDESGLPQLTSYDCEVNAPIQGSRNLLQGEELLRALDQVN
# notes: four residues (Gly-Pro-Gly-Ser) remaining from the PreScission protease cleavage; Free N-terminus; source: expressed as GFP fusion protein, tag cleaved with PreScission protease
# B2: CITED2 224–259, chemically synthesized peptide (peptide, UniProt Q99967 224-259, looked up)
# peptide: Ac-DEEVLMSLVIEMGLDRIKELPELWLGQNEFDFMTDF-NH2
# notes: source: synthetic peptide (chemical synthesis, see ESI)
# B3: CITED2 216–269, chemically synthesized peptide (peptide, UniProt Q99967 216-269, looked up)
# peptide: Ac-NVIDTDFIDEEVLMSLVIEMGLDRIKELPELWLGQNEFDFMTDFVCKQQPSRVS-NH2
# notes: as for B2
# B4: CITED2224-259 (synthetic) (peptide)
# peptide: Ac-DEEVLMSLVIEMGLDRIKELPELWLGQNEFDFMTDF-NH2
# notes: source: synthetic peptide
# B5: HIF-1α 776–826, expressed peptide (GFP tag cleaved) (peptide)
# peptide: GPGSSDLACRLLGQSMDESGLPQLTSYDCEVNAPIQGSRNLLQGEELLRALDQVN
# notes: as for B1
# B6: CITIF, HIF-1α-CITED2 hybrid sequence, expressed peptide (GFP tag cleaved) (peptide)
# chain: GPGSDEEVLMSLVIEMGLDRIKELPQLTSYDCEVNAPIQGSRNLLQGEELLRALDQVN
# B7: CITED2 224–248 (truncated CITED2) (peptide, UniProt Q99967 224-248, looked up)
# peptide: DEEVLMSLVIEMGLDRIKELPELWL
# B8: CITED2216-269 (synthetic) (peptide)
# peptide: Ac-NVIDTDFIDEEVLMSLVIEMGLDRIKELPELWLGQNEFDFMTDFVCKQQPSRVS-NH2
# notes: source: synthetic peptide
# B9: HIF-1α776-826 (synthetic) (peptide)
# peptide: Ac-SDLACRLLGQSMDESGLPQLTSYDCEVNAPIQGSRNLLQGEELLRALDQVN-NH2
# modifications: cysteine pairing not given here
# notes: source: synthetic peptide
# Columns and labels:
# [1] = target: T1, p300 (CH1 domain, residues 330–420) (Homo sapiens, UniProt Q09472); assay: ITC of chemically synthesized HIF-1α, CITED2 and CITIF peptides binding to p300; conditions: ITC, 35 °C, 40 mM sodium phosphate, pH 7.5, 100 mM NaCl, 1 mM DTT, 5 μM protein in cell, 60 μM ligand in syringe
# T1 construct: GST (N, cleaved yes); made in house; host or cells: E. coli BL21 pLysS (pGEX-4T1-p300)
# T1 sequence (Q09472 330-420): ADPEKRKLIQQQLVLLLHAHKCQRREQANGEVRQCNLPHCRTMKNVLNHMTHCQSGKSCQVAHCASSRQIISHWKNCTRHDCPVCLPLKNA
# Protocol: Raw ITC (upper) data and fitted thermogram (lower) (40 mM sodium phosphate, pH 7.5 100 mM NaCl, 1 mM DTT buffer using 5 μM protein in the cell and 60 μM ligand in the syringe at 35 °C) error bars represent the estimated integration errors; (b) Thermodynamic signatures for each interaction.
# Figure S8 (a) Sequences of the truncated CITED2 peptides and isothermal titration […]
# µM peptide in the syringe. All measurements were carried out 40 mM sodium phosphate, pH 7.5 100 mM NaCl, 1 mM DTT buffer at 35°C. Error bars represent the estimated integration […]
# Table S2 Thermodynamic parameters for shortened CITED2 sequences. 68% confidence intervals for the fitting are shown in brackets. Data fitted to a single binding site model, fixed 1:1 stoichiometry with incompetent protein fraction as an adjustable parameter. […]
# (§1) Isothermal titration calorimetry
# (§2) Prior to ITC measurement p300 CH1 was dialysed or run on S75 column in the buffer used for titration, and the same buffer was used to dissolve the pure peptides. Experiments with […]
# (§3) MicroCal iTC200 instrument with 10 µM protein in the cell and 100 µM ligand in the syringe at 37°C, using 2 µl injections and 120 or 180 s spacing between injections. Experiments with the […]
# (§4) instrument using 3-5 µM protein in the cell and 40-60 µM ligand in the syringe at 35°C, using 5 µl injections and 180 s spacing between injections, for 40 injections. Titrations were performed in 40 mM Na-phosphate, pH 7.5 100 mM NaCl, 1 mM DTT buffer except for GFP-HIF-1α and variants for which 25 mM Tris-HCl, 150 mM NaCl, 1mM DTT, pH 7.4 buffer was used. Data were analysed using NITPIC3 and fitted using SEDPHAT4 to a single binding site model (fixed 1:1 stoichiometry), with baseline and incompetent protein fraction as adjustable parameters. 68 % confidence intervals for the fitted values were determined using the automatic confidence interval search implemented in SEDPHAT. Figures were prepared using […]
# [2] = target: T1, p300 (CH1 domain, residues 330–420); assay: ITC of expressed HIF-1α, CITED2 and CITIF peptides binding to p300; conditions: ITC, expressed peptides, conditions as Fig. S6 (40 mM sodium phosphate, pH 7.5, 100 mM NaCl, 1 mM DTT, 35°C)
# Protocol: We hypothesized that it would be possible to enhance the affinity of HIF-1α for p300 by hybridising key regions of both CITED2 and HIF-1α (see later). We first measured the affinity of the parent peptides. A particular difficulty in comparing these peptide sequences is the different length used in different studies.[28,33,35,36] […]
# data and fitted thermogram (lower) (40 mM sodium phosphate, pH 7.5 100 mM NaCl, 1 mM DTT buffer using 5 µM protein in the cell and 60 µM ligand in the syringe at 35°C); (b) Thermodynamic signatures for each interaction. […]
# as §1, §2, §3, §4
# [3] = target: T2, CITED2216-259 /p300 complex (Homo sapiens, UniProt Q09472); assay: Competition ITC: HIF-1α776-826 titrated to preformed CITED2216-259/p300 complex; type: binding; conditions: titrated to CITED2216-259/p300 complex
# T2 construct: GST (N, cleaved yes); made in house; host or cells: p300: E. coli BL21 pLysS (pGEX-4T1-p300); CITED2 peptide: chemical synthesis
# T2 sequence (Q09472 330-420, one chain of several): as the sequence (Q09472 330-420) above
# Protocol: Figure S7Apparent KD fits for the competition ITC experiment using a competition interaction model. p300/ligand complexes were prepared by titrating the appropriate ligand first to p300 in the cell using 3-5 µM protein concentration, the titration stopped when it reached close to […]
# (Table S5) Then it was titrated with the competitor ligand using 30-60 µM concentration in the syringe, 5 or 10 uL injections with 180-240 s spacing. Background titrations were performed without p300 in the cell and subtracted from the measurements. Apparent KD,app and ΔH app values data were fitted to a competition model (Fig. S17) in SEDPHAT. Error bars represent the estimated integration errors.
# (1 picture or pasted object on this page, not shown here)
# Table S1 Apparent KD values and thermodynamic parameters for competition ITC experiments derived from fitting the data to a competition model depicted in Fig. S17. confidence intervals of the binding parameters are shown in brackets. […]
# as §1
# Prior to ITC measurement p300 CH1 was dialysed or run on S75 column in the buffer used for titration, and the same buffer was used to dissolve the pure peptides. […]
# 37°C, using 2 µl injections and 120 or 180 s spacing between injections. Experiments with the […]
# as §4
# Competition ITC measurements
# Competition ITC measurements were performed in Microcal VP ITC. […]
# [4] = target: T3, p300 (Homo sapiens, UniProt Q09472); assay: Global fitting of ITC titrations with ternary complex model: binary binding parameters
# T3 construct: GST (N, cleaved yes); made in house; host or cells: E. coli BL21 pLysS (pGEX-4T1-p300)
# T3 sequence (Q09472 330-420): as above
# Text: To gain more insight into the mechanism by which the different CITED2 sequences displace HIF-1α from the preformed HIF-1α/p300 complex, we performed global fitting[69] of the competition data using a model that permits ternary complex formation depicted in Fig. 5e (fitted thermograms are shown on Fig. S9 (ESI ^†), for detailed analysis see Fig. S18 and ESI ^† eqn (S5)–(S20)). The reported cooperativity constant (α), the derived ΔΔG and ΔΔH represent the additional Gibbs energy and additional contribution to the enthalpy due to cooperative interactions and indicate whether the ternary complex formation is favourable (negative ΔΔG) or unfavourable (positive ΔΔG).[70,71]
# Thus the enthalpy change for equilibrium III. (CITED2 binding to HIF-1 α /p300 complex can
# ∆𝐻𝑇,𝐶𝐼𝑇 = ∆𝐻𝐶𝐼𝑇 + ∆∆𝐻 𝐸𝑞. 19.
# And the enthalpy for equilibrium IV. HIF-1 α binding to CITED2/p300 complex can be given by:
# ∆𝐻𝑇,𝐻𝐼𝐹 = ∆𝐻𝐻𝐼𝐹 + ∆∆𝐻 𝐸𝑞. 20.
# Fitting in SEDPHAT was parametrized as follows: HIF-1α776-826 titrated to p300 (B to
# ΔH B, logK[AB]C/KAC and ΔΔH (corresponding to KHIF, ΔH HIF, KCITED, ΔH CITED, cooperativity
# constant α and ΔΔH) were fitted using A+B+C <-> AB + C <-> AC + B <-> ABC triple complex
# model. Incompetent fraction for p300 and baseline was fitted locally for each experiment. 68
# [5] = target: p300 CH1 (Homo sapiens) (UniProt Q09472); assay: anisotropy; conditions: cited from earlier work
# [6] = target: T4, p300 CH1 domain (residues 330–420) (UniProt Q09472 330-420); assay: ITC; expressed peptides (GFP tag cleaved) titrated to p300; conditions in Fig. S6 (ESI); fixed 1:1 stoichiometry; conditions: both partners purified
# T4 construct: p300 CH1 domain, residues 330–420; The cleavage of GST is said for the anisotropy control; also called p300 with the GST tag cleaved; source: recombinantly expressed as a fusion protein with GST, GST tag cleaved
# T4 sequence (Q09472 330-420): as above
# [7] = target: T4, p300 CH1 domain (residues 330–420); assay: ITC; peptide in the syringe, p300 in the cell (Fig. 4: 5 μM protein, 60 μM ligand); 40 mM sodium phosphate, pH 7.5, 100 mM NaCl, 1 mM DTT, 35 °C; single-site model, fixed 1:1 stoichiometry; conditions: both partners purified
# [8] = target: T4, p300 CH1 domain (residues 330–420); assay: ITC; competition: CITED2 peptides titrated into the preformed p300/HIF-1α 776–826 complex (1.2–1.6 equivalents of HIF-1α); 40 mM sodium phosphate, pH 7.5, 100 mM NaCl, 1 mM DTT, 35 °C; competitive binding model; apparent; conditions: both partners purified
# [9] = target: T5, p300 CH1 domain (residues 330-420), GST removed with thrombin (human, UniProt Q09472 330-420); assay: ITC; global fit in SEDPHAT of three titrations (HIF-1α776-826 to p300, CITED2 peptide to p300, CITED2 peptide to preformed p300/HIF-1α776-826) to a model with a ternary CITED2-HIF-1α-p300 complex; 40 mM sodium phosphate, pH 7.5, 100 mM NaCl, 1 mM DTT; 35 °C; conditions: both partners purified
# T5 construct: human p300, CH1 domain (zinc finger, TAZ type 1), residues 330-420; Thrombin-cleaved construct (expected m/z 10603.30), used on the Microcal VP ITC with synthetic partners (D1:p17); source: E. coli BL21 pLysS (pGEX-4T-1), glutathione beads, on-column thrombin cleavage, SEC
# T5 sequence (Q09472 330-420): as above
# [10] = target: T4, p300 CH1 domain (residues 330–420); assay: ITC; peptide in the syringe, p300 in the cell (Fig. 4: 5 μM protein, 60 μM ligand); 40 mM sodium phosphate, pH 7.5, 100 mM NaCl, 1 mM DTT, 35 °C; single-site model, fixed 1:1 stoichiometry; conditions: both partners purified; remark: listed apart in the source
# [11] = 68% confidence interval in brackets
# [12] = global fit 1 (CITED224-259 and HIF776-826 titrations)
# [13] = global fit 2 (CITED216-269 and HIF776-826 titrations)
# [14] = global fit 3 (CITED2216-248 and HIF776-826 titrations)
molecule,measurement,setting,value
CC[C@H](C)[C@H](NC(=O)[C@@H]1CCCN1C(=O)[C@H](C)NC(=O)[C@H](CC(N)=O)NC(=O)[C@@H](NC(=O)[C@H](CCC(=O)O)NC(=O)[C@H](CS)NC(=O)[C@H](CC(=O)O)NC(=O)[C@H](Cc1ccc(O)cc1)NC(=O)[C@H](CO)NC(=O)[C@@H](NC(=O)[C@H](CC(C)C)NC(=O)[C@H](CCC(N)=O)NC(=O)[C@@H]1CCCN1C(=O)[C@H](CC(C)C)NC(=O)CNC(=O)[C@H](CO)NC(=O)[C@H](CCC(=O)O)NC(=O)[C@H](CC(=O)O)NC(=O)[C@H](CCSC)NC(=O)[C@H](CO)NC(=O)[C@H](CCC(N)=O)NC(=O)CNC(=O)[C@H](CC(C)C)NC(=O)[C@H](CC(C)C)NC(=O)[C@H](CCCNC(=N)N)NC(=O)[C@H](CS)NC(=O)[C@H](C)NC(=O)[C@H](CC(C)C)NC(=O)[C@H](CC(=O)O)NC(=O)[C@H](CO)NC(=O)[C@H](CO)NC(=O)CNC(=O)[C@@H]1CCCN1C(=O)CN)[C@@H](C)O)C(C)C)C(=O)N[C@@H](CCC(N)=O)C(=O)NCC(=O)N[C@@H](CO)C(=O)N[C@@H](CCCNC(=N)N)C(=O)N[C@@H](CC(N)=O)C(=O)N[C@@H](CC(C)C)C(=O)N[C@@H](CC(C)C)C(=O)N[C@@H](CCC(N)=O)C(=O)NCC(=O)N[C@@H](CCC(=O)O)C(=O)N[C@@H](CCC(=O)O)C(=O)N[C@@H](CC(C)C)C(=O)N[C@@H](CC(C)C)C(=O)N[C@@H](CCCNC(=N)N)C(=O)N[C@@H](C)C(=O)N[C@@H](CC(C)C)C(=O)N[C@@H](CC(=O)O)C(=O)N[C@@H](CCC(N)=O)C(=O)N[C@H](C(=O)N[C@@H](CC(N)=O)C(=O)O)C(C)C [HIF-1α776–826],"ΔS, synthetic peptides",[1],−41 cal mol^−1 K^−1
same,"ΔH, synthetic peptides",[1]; [11],-22.9 kcal/mol
same,"ΔS, expressed peptides",[2],−39.2 cal mol^−1 K^−1
same,"ΔH, expressed peptides",[2]; [11],-22.2 kcal/mol
same,Kd,"[3]; fixed KD = 26.3 nM for CITED2, treat with caution, small heat change, read-out: KD,app HIF-1α",695 nM
same,"ΔHapp, HIF-1α",[3]; treat with caution,-26.37 kcal/mol
same,"ΔSapp, HIF-1α",[3]; treat with caution,-57.4 cal/mol/K
same,ΔH,[4]; [12],-22.7 kcal/mol
same,ΔS,[4]; [12],-40.3 cal mol-1 K-1
same,ΔH,[4]; [13],-22.9 kcal/mol
same,ΔS,[4]; [13],-41.1 cal mol-1 K-1
same,ΔH,[4]; [14],-27.8 kcal/mol
same,ΔS,[4]; [14],-57.4 cal mol-1 K-1
CITED2 216-269 (from UniProt Q99967),Kd,[5],10 nM
HIF-1α 776-826 (from UniProt Q16665),Kd,[5],10 nM
B1,dH,[6],-32.7 kcal/mol
B2,Kd,[7],9.1 nM
same,dH,[7],-12.4 kcal/mol
same,"KD,app (competition against the preformed p300/HIF-1α 776–826 complex)",[8],12.2 nM
B3,Kd,[7],26.3 nM
same,dH,[7],-13.2 kcal/mol
same,"KD,app (competition against the preformed p300/HIF-1α 776–826 complex)",[8],1.1 nM
B4,Kd,[9],11.6 nM
B5,Kd,[6],82.4 nM
same,dH,[6],-22.2 kcal/mol
B6,dH,[6],-18.3 kcal/mol
B7,Kd,[10],10400 nM
B8,Kd,[9],26.9 nM
B9,Kd,[9],67 nM and 48.8 nM and 52.3 nM
